Measured values from IntAct's records for PubMed 17548836.

B1: Bone morphogenetic protein 1 (Homo sapiens), P13497 (parent)
chain: MPGVARLPLLLGLLLLPRPGRPLDLADYTYDLAEEDDSEPLNYKDPCKAAAFLGDIALDEEDLRAFQVQQAVDLRRHTARKSSIKAAVPGNTSTPSCQSTNGQPQRGACGRWRGRSRSRRAATSRPERVWPDGVIPFVIGGNFTGSQRAVFRQAMRHWEKHTCVTFLERTDEDSYIVFTYRPCGCCSYVGRRGGGPQAISIGKNCDKFGIVVHELGHVVGFWHEHTRPDRDRHVSIVRENIQPGQEYNFLKMEPQEVESLGETYDFDSIMHYARNTFSRGIFLDTIVPKYEVNGVKPPIGQRTRLSKGDIAQARKLYKCPACGETLQDSTGNFSSPEYPNGYSAHMHCVWRISVTPGEKIILNFTSLDLYRSRLCWYDYVEVRDGFWRKAPLRGRFCGSKLPEPIVSTDSRLWVEFRSSSNWVGKGFFAVYEAICGGDVKKDYGHIQSPNYPDDYRPSKVCIWRIQVSEGFHVGLTFQSFEIERHDSCAYDYLEVRDGHSESSTLIGRYCGYEKPDDIKSTSSRLWLKFVSDGSINKAGFAVNFFKEVDECSRPNRGGCEQRCLNTLGSYKCSCDPGYELAPDKRRCEAACGGFLTKLNGSITSPGWPKEYPPNKNCIWQLVAPTQYRISLQFDFFETEGNDVCKYDFVEVRSGLTADSKLHGKFCGSEKPEVITSQYNNMRVEFKSDNTVSKKGFKAHFFSDKDECSKDNGGCQQDCVNTFGSYECQCRSGFVLHDNKHDCKEAGCDHKVTSTSGTITSPNWPDKYPSKKECTWAISSTPGHRVKLTFMEMDIESQPECAYDHLEVFDGRDAKAPVLGRFCGSKKPEPVLATGSRMFLRFYSDNSVQRKGFQASHATECGGQVRADVKTKDLYSHAQFGDNNYPGGVDCEWVIVAEEGYGVELVFQTFEVEEETDCGYDYMELFDGYDSTAPRLGRYCGSGPPEEVYSAGDSVLVKFHSDDTITKKGFHLRYTSTKFQDTLHSRK
B2: Bone morphogenetic protein 1 (Homo sapiens), P13497 (parent)
chain: B1 chain
partner: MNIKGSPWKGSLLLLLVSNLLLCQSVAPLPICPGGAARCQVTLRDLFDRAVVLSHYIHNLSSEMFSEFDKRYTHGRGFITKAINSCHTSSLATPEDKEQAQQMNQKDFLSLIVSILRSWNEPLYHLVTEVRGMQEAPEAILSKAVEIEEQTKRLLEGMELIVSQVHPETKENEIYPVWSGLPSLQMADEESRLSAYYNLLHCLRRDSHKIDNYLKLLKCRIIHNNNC

Variants of: B1
Conditions: with soma_human GH1, P01241
Chain of soma_human GH1, P01241 (P01241 whole entry): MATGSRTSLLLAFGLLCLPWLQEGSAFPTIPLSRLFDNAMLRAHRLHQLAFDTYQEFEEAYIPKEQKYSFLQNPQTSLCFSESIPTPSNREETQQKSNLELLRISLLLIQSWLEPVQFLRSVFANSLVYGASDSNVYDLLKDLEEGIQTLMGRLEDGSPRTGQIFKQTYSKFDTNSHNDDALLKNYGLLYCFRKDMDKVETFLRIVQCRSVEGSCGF

effect of a mutation on the interaction	Variant
disrupting interaction strength	E214A

Variants of: B2
Conditions: with prl_human PRL

effect of a mutation on the interaction	Variant
disrupting interaction strength	E214A
